Data set [1] can be described thus: Rat pharmacokinetic comparability with/without C-terminal lysine. It counts as in vivo, Sprague-Dawley rats. The settings on record: in vivo, 1 mg/kg. The protocol: 1 mg/kg of total GLP-2 peptibody K protein was administered subcutaneously to one group of six male Sprague-Dawley rats. 1 mg/kg of total GLP-2 peptibody K274 protein was administered intravenously to another group of six male Sprague-Dawley rats. 1 mg/kg of total GLP-2 peptibody B protein was administered subcutaneously to a third group of five male Sprague-Dawley rats. 1 mg/kg of total GLP-2 peptibody B264 protein was administered subcutaneously to a fourth group of five male Sprague-Dawley rats.
For all of the above groups, plasma samples were taken pre-dose, and at the following time points post-dose: 5 minutes (day 1), 10 minutes (day 1), 20 minutes (day 1), 30 minutes (day 1), 1 hour (day 1), 2 hours (day 1), 6 hours (day 1), 24 hours (day 2), 48 hours (day 3), 72 hours (day 4), 120 hours (day 6), 168 hours (day 8), 240 hours (day 11), and 336 hours (day 15).
Tables showing the pharmacokinetic data comparing intravenously administered GLP-2 peptibody K and GLP-2 peptibody K274 are in FIG. 10B. Tables showing the pharmacokinetic data comparing subcutaneously administered GLP-2 peptibody K and GL-2 peptibody K274 are in FIG. 10C.

The nature of data set [2]: Cynomolgus monkey pharmacokinetic study. In kind it is in vivo, cynomolgus monkeys. Particulars: 0.75 mg/kg. The protocol:
Pharmacokinetics studies of teduglutide, GLP-2 Peptibody B and GLP-2 Peptibody K were formed in cynomolgus monkeys with citrulline assayed as a biomarker of GLP-2 concentration. In the study, 12.5 nmol/kg teduglutide was administered subcutaneously to a group of 6 male cynomolgus monkeys at day 1. Then for one set of 2 monkeys, 25 nmol/kg GLP-2 Peptibody B was administered intravenously at day 7, day 21, day 28, day 35, and day 42. For another set of 3 monkeys, 25 nmol/kg GLP-2 Peptibody B was administered subcutaneously at day 7, day 21, day 28, day 35, and day 42. For another set of monkeys, 5 nmol/kg GLP-2 Peptibody K was administered intravenously (2 monkeys) and subcutaneously (3 monkeys) at day 7, day 21, day 28, day 35, and day 42. For another set of monkeys, 25 nmol/kg GLP-2 Peptibody K was administered subcutaneously (3 monkeys) and intravenously (2 monkeys) at day 7, day 21, day 28, day 35, and day 42.

Data set [3] can be described thus: Rat pharmacokinetics, intravenous dosing. In kind it is in vivo, Sprague-Dawley rats. Particulars: single dose 1 mg/ml. As for the experimental part:
In the rat, four pharmacokinetic parameters were measured for Gattex® (a GLP-2 peptide having the A2G mutation): CL, Vc, Vt and Q. The same pharmacokinetic parameters were also measured for GLP-2 peptibodies A, B, E, J, K, L, M, O and P. The data is shown in Table 4. Male Sprague-Dawley rats (3 animals per group) were injected intravenously either via a jugular vein or tail vein catheter. A singles dose of test article was injected at a dose level of 1 mg/ml. The test articles were formulated in PBS pH 7.4 at a concentration of Blood samples were taken 0.083, 0.167, 0.33, 0.5, 1, 2, 6, 24, 48, 72, 120, 168, 240, and 336 hours post dose. Blood samples were collected into heparinized tubes and centrifuged for 5 minutes at 2000 xg within 10 minutes of collection. 100 μL of plasma were transferred to a 1.5 ml Eppendorf tube containing 2 μL of 50 mM PMSF. After mixing, the plasma samples were frozen at −80° C. until analysis.

For orientation: CL/F means clearance divided by bioavailability, as obtained after extravascular dosing. In the case of “GLP-2 peptibody K: GLP-2[A2G]-GGGGSGGGGSGGGGS linker-IgG1 Fc (LALA) with C-terminal lysine; SEQ ID NO: 10”, the “pharmacokinetic comparability of K and K274” value in data set [1] is on record as “identical from a pharmacokinetic point of view”. Further, in data set [2] (MDPK, intravenous), the CL worked out at 0.804 mL/h/kg, the Q worked out at 1.12 mL/h/kg, the Vc came out at 0.0365 L/kg and the Vt was 0.0339 L/kg. Besides, in data set [2] (MDPK, subcutaneous), the CL/F is 1.35 mL/h/kg, the Vc turned out to be 0.111 L/kg and the “association constant (ka)” value turned out to be 1.70 day⁻¹. In data set [2] (SDPK, intravenous), this substance registered a CL of 0.717 mL/h/kg, a Q of 1.21 mL/h/kg, a Vc of 0.0323 L/kg and a Vt of 0.0329 L/kg. In data set [2] (SDPK, subcutaneous), the CL/F came to 1.37 mL/h/kg, the Vc worked out at 0.107 L/kg and the “association constant (ka)” value came to 1.56 day⁻¹. In data set [3], this substance showed a CL of 2.24 mL/h/kg, a Q of 2.54 mL/h/kg, a Vc of 0.0422 L/kg and a Vt of 0.0464 L/kg.
